Measured values: patent US20190092852A1 (Genentech, published 2019)

T1: human IL-33 (R&D Systems, #3625-IL-010/CF) (human, UniProt O95760 112-270)
T1 sequence (looked up): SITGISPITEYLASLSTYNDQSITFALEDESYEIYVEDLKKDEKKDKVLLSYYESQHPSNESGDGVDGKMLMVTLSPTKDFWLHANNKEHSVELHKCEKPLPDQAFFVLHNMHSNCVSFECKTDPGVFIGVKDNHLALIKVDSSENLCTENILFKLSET

T2: cynomolgus monkey N-terminal 6-His-tagged and C-terminal Avi-tagged IL-33 (S112-T270) (cynomolgus monkey)
T2 chain: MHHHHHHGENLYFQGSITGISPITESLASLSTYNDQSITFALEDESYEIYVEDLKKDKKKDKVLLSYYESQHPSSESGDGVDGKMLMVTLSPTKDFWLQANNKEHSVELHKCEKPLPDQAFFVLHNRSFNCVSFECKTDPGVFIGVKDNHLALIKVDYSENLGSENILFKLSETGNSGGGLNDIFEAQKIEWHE

T3: human IL-33 N-His (human)
T3 chain: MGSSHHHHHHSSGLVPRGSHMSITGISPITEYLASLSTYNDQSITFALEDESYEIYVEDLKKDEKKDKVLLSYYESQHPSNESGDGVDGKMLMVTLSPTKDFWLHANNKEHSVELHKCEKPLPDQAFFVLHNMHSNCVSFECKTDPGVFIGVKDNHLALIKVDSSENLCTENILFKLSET

T4: human IL-33 (construct not stated) (human, UniProt O95760 112-270)
T4 sequence (looked up): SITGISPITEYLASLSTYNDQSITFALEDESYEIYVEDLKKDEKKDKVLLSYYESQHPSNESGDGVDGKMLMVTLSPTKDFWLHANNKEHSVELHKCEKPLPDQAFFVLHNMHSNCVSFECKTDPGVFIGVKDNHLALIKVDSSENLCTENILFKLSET

T5: biotinylated human IL-33 (human, UniProt O95760 112-270, biotin-labeled with EZ-LINK NHS-PEG4-Biotin)
T5 construct: also called biotin-huIL-33
T5 sequence (looked up): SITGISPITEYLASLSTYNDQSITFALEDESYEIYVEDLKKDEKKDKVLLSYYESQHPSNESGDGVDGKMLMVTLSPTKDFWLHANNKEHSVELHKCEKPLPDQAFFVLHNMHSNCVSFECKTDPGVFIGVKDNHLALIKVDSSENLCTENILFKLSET


Key:
[1] = biological target: T1, human IL-33 (R&D Systems, …); experiment: cell-based or functional assay
[2] = biological target: T2, cynomolgus monkey N-terminal …; experiment: cell-based or functional assay
[3] = biological target: T3, human IL-33 N-His; experiment: cell-based or functional assay
[4] = biological target: T4, human IL-33 (construct not stated); experiment: cell-based or functional assay
[5] = biological target: T1, human IL-33 (R&D Systems, …); experiment: cell-based or functional assay; remark: listed apart in the source
[6] = biological target: T5, biotinylated human IL-33; experiment: competitive ELISA, biotin-huIL-33 to coated hST2-Fc
[7] = biological target: T1, human IL-33 (R&D Systems, …); experiment: cell-based or functional assay; remark: listed apart in the source
[8] = biological target: T2, cynomolgus monkey N-terminal …; experiment: cell-based or functional assay
[9] = biological target: T1, human IL-33 (R&D Systems, …); experiment: cell-based or functional assay; remark: listed apart in the source
[10] = biological target: T1, human IL-33 (R&D Systems, …); experiment: cell-based or functional assay; remark: listed apart in the source

HEK-BLUE SEAP reporter IC50 [1] [pM]	IFN-γ secretion from primary NK cells, IC50 [1] [pM]	phospho-p38 in primary basophils, IC50 [1] [pM]	HEK-BLUE SEAP reporter IC50 [2] [nM]	IC50; SEAP reporter, HEK-BLUE IL-33 cells, 15 pM human IL-33 N-His, 20 h [3] [pM]	IC50 (read off the curve); phospho-p38 MFI in CD123+ basophils (average from 2 donors), 10 ng/ml IL-33 [4] [pM]	IC50; IFN-gamma ELISA, primary human NK cells, 260 pM hIL-33 + IL-12 [5] [M]	IC50 [6] [nM]	Maximum Blocking [6] [%]	IC50; SEAP reporter (OD 620), HEK-BLUE IL-33/IL-1beta cells, 10 pM hIL-33 [7] [M]	IC50; SEAP reporter (OD 620), HEK-BLUE IL-33/IL-1beta cells, 5 pM cyno IL-33 (5pM cIL-33-Nhis) [8] [M]	IC50, IL-33-induced phospho-p38 in primary human basophils, 500 pM hIL-33 [9] [M]	IC50 (read off the curve) [10] [pM]	Binder
2.4	30	0.15	4.2	12	~300	3.3e-11	0.021	92					10C12.38.H6.87Y.58I IgG4 (antibody, V domains shown, also called anti-IL33 10C12.38.H6.87Y.58I IgG4) VH: EVQLVESGGGLVQPGGSLRLSCAASGFTFSSFSMSWVRQAPGKGLEWVATISGGKTFTDYVDSVKGRFTISRDDSKNTLYLQMNSLRAEDTAVYYCTRANYGNWFFEVWGQGTLVTVSS VL: EIVLTQSPATLSLSPGERATLSCRASESVAKYGLSLLNWFQQKPGQPPRLLIFAASNRGSGIPARFSGSGSGTDFTLTISSLEPEDFAVYYCQQSKEVPFTFGQGTKVEIKR
						5.1e-10	0.23	88	9.2e-11	6.6e-08	6.7e-13	~0.7	H4H9659P (antibody, IgG4, V domains shown, also called RG7) VH: QVQLVQSGAEVKKPGASVKVSCKASGYTFNSYGISWVRQAPGQGLEWMGWISSHNGNSHYVQKFQGRVSMTTDTSTSTAYMELRSLRSDDTAVYYCARHSYTTSWYGGFDYWGQGTLVTVSS VL: DIQMTQSPSSVSASVGDRVTITCRASQGFSSWLAWYQQKPGKAPQLLIYAASSLQSGVPSRFSGSGSGSDFTLTISSLQPEDFATYYCQQANSFPLTFGGGTKVEIK
